Results on two molecules are retold here after article PMC4875590, “LATE ELONGATED HYPOCOTYL regulates photoperiodic flowering via the circadian clock in Arabidopsis”.

The series deals with MBP-CCA1 (Arabidopsis thaliana, UniProt P92973 1-608). In words: EMSA; 100 ng protein; 100 ng poly(dI-dC); EMSA: 10 mM Tris-HCl pH 7.6, 50 mM NaCl, 1 mM EDTA, 5 mM DTT, 5% glycerol, 100 ng poly(dI-dC), 30 min, room temperature; 6% native PAGE. The note with it: protein: recombinant; tags: MBP (N-terminal, pMAL-c2X); label: 32P end label.
Chain of MBP-CCA1 (P92973 whole entry): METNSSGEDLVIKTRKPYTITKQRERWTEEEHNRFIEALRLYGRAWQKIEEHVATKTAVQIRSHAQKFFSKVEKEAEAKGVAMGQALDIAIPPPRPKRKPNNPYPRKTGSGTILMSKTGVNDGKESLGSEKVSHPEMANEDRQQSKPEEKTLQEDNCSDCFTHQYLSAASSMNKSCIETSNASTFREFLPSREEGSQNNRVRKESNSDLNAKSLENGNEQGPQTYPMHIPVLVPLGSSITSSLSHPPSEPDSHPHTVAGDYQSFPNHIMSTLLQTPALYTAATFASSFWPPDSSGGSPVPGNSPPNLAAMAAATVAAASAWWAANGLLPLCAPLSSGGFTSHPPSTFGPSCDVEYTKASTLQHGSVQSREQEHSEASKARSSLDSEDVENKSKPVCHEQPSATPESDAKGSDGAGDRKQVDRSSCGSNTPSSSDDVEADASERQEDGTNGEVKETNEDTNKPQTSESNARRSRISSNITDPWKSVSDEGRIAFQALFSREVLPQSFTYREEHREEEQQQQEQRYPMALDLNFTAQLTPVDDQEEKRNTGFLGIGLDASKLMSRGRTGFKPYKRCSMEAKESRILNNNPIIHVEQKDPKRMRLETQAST

B1: FT EE (dsDNA)
DNA 1: TAATTAAAATATCTGCAAA
DNA 2: TTTGCAGATATTTTAATTA
As to B1, the binding result was “binds”.

B2: FT CBS (dsDNA)
DNA 1: GCTTTAGATTTTTAATAG
DNA 2: CTATTAAAAATCTAAAGC
Regarding B2, the binding result is given as “binds”.
